Measured values published in article PMC7076939.

How the values were obtained:
MeCP2 (human) = assay: fluorescence anisotropy; conditions: 24 nM DNA, text gives error 4.4, 5-methylcytosine at one CpG, Anisotropy: 20 mM HEPES, 50 mM NaCl, 3 mM MgCl2, 3 mM EDTA, pH 7.5, 24 nM DNA, temperature not given, AFM: 20 mM HEPES, 10 mM Mg(OAc)2, 100 mM NaCl
[1] = test system: ATTO-MBD2 (MBD2FLsc labeled with ATTO 565) (human); assay: fluorescence anisotropy; conditions: 24 nM DNA, text rounds to 25±5, 5-methylcytosine at one CpG, Anisotropy: 20 mM HEPES, 50 mM NaCl, 3 mM MgCl2, 3 mM EDTA, pH 7.5, 24 nM DNA, temperature not given, AFM: 20 mM HEPES, 10 mM Mg(OAc)2, 100 mM NaCl
[2] = test system: MBD2FLsc (single-chain MBD2 with scMBD2-GATAD2A), unlabeled (human); assay: fluorescence anisotropy; conditions: 24 nM DNA, text rounds to 12±4, 5-methylcytosine at one CpG, Anisotropy: 20 mM HEPES, 50 mM NaCl, 3 mM MgCl2, 3 mM EDTA, pH 7.5, 24 nM DNA, temperature not given, AFM: 20 mM HEPES, 10 mM Mg(OAc)2, 100 mM NaCl
[3] = test system: ATTO-MBD2 (MBD2FLsc labeled with ATTO 565) (human); assay: nanochannel single-molecule fluorescence; conditions: Anisotropy: 20 mM HEPES, 50 mM NaCl, 3 mM MgCl2, 3 mM EDTA, pH 7.5, 24 nM DNA, temperature not given, AFM: 20 mM HEPES, 10 mM Mg(OAc)2, 100 mM NaCl

## FAM-labeled dsDNA with one methylated CpG
MeCP2 (human)
  Kd: 7.5 nM
[1]
  Kd: 24.5 nM
[2]
  Kd: 11.9 nM

## methylated lambda DNA
[3]; CpG 5-methylcytosine
  binding signal (fold bound vs unmethylated): 10

## unmethylated lambda DNA
[3]
  binding signal (fraction of methylated): 0.1
